Test results: patent EP3620472A1 (Sanofi, dated 2020)
Where “and” joins values, the source holds several entries; their conditions need not be identical. Identical values can stand only once. Like-named read-outs stand apart in the source and are kept apart here.

Assays:
[1] = target: T1, glycosylated human PAI-1 (active form) (human, UniProt P05121 24-402, glycosylated (sites not given)); assay: cell-based or functional assay
[2] = target: T1, glycosylated human PAI-1 (active form); assay: cell-based or functional assay; remark: listed apart in the source
human PAI-1 [3] = target: T2, human PAI-1 (human, UniProt P05121 24-402); assay: Biacore supernatant screen, graded off-rate
T2 construct: serpin; also called hPAI-1

[4] = target: T1, glycosylated human PAI-1 (active form); assay: cell-based or functional assay; remark: listed apart in the source
cynomolgus PAI-1 [5] = target: T3, cynomolgus PAI-1 (cynomolgus (Macaca fascicularis), UniProt P05121 24-402 (human entry)); assay: cell-based or functional assay
human PAI-1 [6] = target: T2, human PAI-1; assay: cell-based or functional assay
endogenous human PAI-1 [7] = target: T4, endogenous human PAI-1 (human, UniProt P05121 24-402); assay: cell-based or functional assay
cynomolgus PAI-1 [8] = target: T3, cynomolgus PAI-1; assay: value used to set up the HDX MS samples
[9] = target: T1, glycosylated human PAI-1 (active form); assay: cell-based or functional assay; remark: listed apart in the source
endogenous human PAI-1 [10] = target: T4, endogenous human PAI-1; assay: cell-based or functional assay; remark: listed apart in the source
endogenous human PAI-1 [11] = target: T4, endogenous human PAI-1; assay: cell-based or functional assay; remark: listed apart in the source
[12] = target: T1, glycosylated human PAI-1 (active form); assay: Biacore 2000, mAb captured, single-cycle kinetics

B1: B28 (antibody, mouse IgG2b, V domains shown)
VH: QVQLQQSGAELMKPGASVKISCKATGYTFSISWIEWIKQRPGGLEWIGKILPGSGGANYNEKFKGKATVTADTSSNTVYMQLSSLTSEDSAVYYCARLSTGTRGAFDYWGQGTTLTVSS
VL: DIQLTQSPASLSASVGATVTITCRASENVYSYLAWYQQKQGKSPQLLVYNAKTLAEGVPSRFSGSGSGTQFSLKINYLQPEDFGSYYCQHHYGTPPTFGGGTKVEIKR
plasmin generation, IC50abs [1]: 7280 pM | plasmin generation, Imax [1]: 90%

B2: B109 (antibody)
chain 1: SGQGLDWIGAIYPGNSDTTYNQKFEDKAKLTAVASASTAYMEVSSLTNEDSAVYYCTRGLRRWGAMDYWGQGTSVTVSS
chain 2: DIVMTQSHKFMSTSAGDRVSIPCKASQDVSSAVAWYQQKLGQSPKLLIYSASFRYTGVPDRFTGSGSGTDFTFTISSVQAEDLAVYYCQQHYSSPYTFGGGTNLEIK
Chromogenic Assays [2]: 0.23 nM | koff (human PAI-1 [3]): ≤ 0.0001 s⁻¹ | plasmin generation, IC50abs [1]: 6110 pM | plasmin generation, Imax [1]: 94%

B3: A44 (antibody, mouse IgG1, V domains shown)
VH: EMQLQESGPSLVKPSQTLSLTCSVTGDSMTNGYWNWIRKFPGNKLEYMGYITYSGSTYYNPSLKGRISITRNTSKNQYYLQLSSVTTEDTATYYCARWHYGSPYYFDYWGQGTTLTVSS
VL: DIKMTQSPSSMYASLGERVTITCKASQDINSYLSWLQQKPGKSPKTLIYRANRSVDGVPSRFSGSGSGQDYSLTISSLEYEDMGIYYCLQYDEFPPTFGGGTKLEIKR
plasmin generation, IC50abs [1]: 3320 pM | plasmin generation, Imax [1]: 97%

B4: A44-hv11 (antibody, V domains shown)
VH: QMTLKESGPTLVKPTQTLSLTCSVSGDSMTNGYWNWIRQFPGKALEYMGYITYSGSTYYNPSLKGRITITRDTSKNQYYLTLSSVTTVDTATYYCARWHYGSPYYFDYWGQGTTLTVSS
VL: DIKMTQSPSSLSASVGDRVTITCKASQDINSYLSWLQQKPGKSPKTLIYRAQRSVEGVPSRFSGSGSGQDYSLTISSLQPEDLGIYYCLQYDEFPPTFGGGTKLEIK
notes: constant regions only as pictures; also called A44V11; A44v11
human plasma clot lysis IC50 [4]: 1380 pM | human plasma clot lysis Imax @ 100 nM [4]: 113% | Cyno PAI-1 neutralization IC50 (cynomolgus PAI-1 [5]): 42.4 pM | Cyno PAI-1 neutralization Y50% (cynomolgus PAI-1 [5]): 50.8% | uPA-PAI-1 complex ELISA IC50 (human PAI-1 [6]): 131 pM | uPA-PAI-1 complex ELISA Y50% (human PAI-1 [6]): 50.8% | uPA-PAI-1 complex ELISA IC50 (endogenous human PAI-1 [7]): 15.7 pM | uPA-PAI-1 complex ELISA Y50% (endogenous human PAI-1 [7]): 37.5% | Kd (cynomolgus PAI-1 [8]): < 50 pM | human plasma clot lysis IC50 [9]: 2000 pM | human liver lysate, uPA-PAI-1 ELISA IC50 (endogenous human PAI-1 [10]): 36.5 pM and 50.3 pM and 46.5 pM | human liver lysate, uPA-PAI-1 ELISA IC50, mean (endogenous human PAI-1 [10]): 44.4 pM

B5: A44-hv13 (antibody, V domains shown)
VH: QMQLQESGPGLVKPSETLSLTCTVSGDSMTNGYWNWIRQPPGKGLEYMGYITYSGSTYYNPSLKSRITISRDTSKNQYSLKLSSVTAADTAVYYCARWHYGSPYYFDYWGQGTLVTVSS
VL: DIKMTQSPSSLSASVGDRVTITCKASQDINSYLSWLQQKPGKSPKTLIYRAQRSVEGVPSRFSGSGSGQDYSLTISSLQPEDLGIYYCLQYDEFPPTFGGGTKLEIK
Cyno PAI-1 neutralization IC50 (cynomolgus PAI-1 [5]): 28.1 pM | Cyno PAI-1 neutralization Y50% (cynomolgus PAI-1 [5]): 52.8% | uPA-PAI-1 complex ELISA IC50 (human PAI-1 [6]): 166 pM | uPA-PAI-1 complex ELISA Y50% (human PAI-1 [6]): 52.8% | uPA-PAI-1 complex ELISA IC50 (endogenous human PAI-1 [7]): 31.1 pM | uPA-PAI-1 complex ELISA Y50% (endogenous human PAI-1 [7]): 61.4%

B6: A44-hv14 (antibody, V domains shown)
VH: QMQLQESGPGLVKPSETLSLTCTVSGDSMTNGYWNWIRQPPGKGLEYMGYITYSGSTYYNPSLKSRITISRDTSKNQYSLKLSSVTAADTAVYYCARWHYGSPYYFDYWGQGTLVTVSS
VL: DIKMTQSPSSLSASVGDRVTITCKASQDINSYLSWLQQKPGKSPKTLIYRAQRSVEGVPSRFSGSGSGQDYSLTISSLQPEDLATYYCLQYDEFPPTFGGGTKLEIK
Cyno PAI-1 neutralization IC50 (cynomolgus PAI-1 [5]): 28.7 pM | Cyno PAI-1 neutralization Y50% (cynomolgus PAI-1 [5]): 52.5% | uPA-PAI-1 complex ELISA IC50 (human PAI-1 [6]): 56.3 pM | uPA-PAI-1 complex ELISA Y50% (human PAI-1 [6]): 52.5% | uPA-PAI-1 complex ELISA IC50 (endogenous human PAI-1 [7]): 58.6 pM | uPA-PAI-1 complex ELISA Y50% (endogenous human PAI-1 [7]): 73.9%

B7: A44-hv12 (antibody, V domains shown)
VH: QMTLKESGPTLVKPTQTLSLTCSVSGDSMTNGYWNWIRQFPGKALEYMGYITYSGSTYYNPSLKGRITITRDTSKNQYYLTLSSVTTVDTATYYCARWHYGSPYYFDYWGQGTTLTVSS
VL: DIKMTQSPSSLSASVGDRVTITCKASQDINSYLSWLQQKPGKSPKTLIYRAQRSVEGVPSRFSGSGSGQDYSLTISSLQPEDLATYYCLQYDEFPPTFGGGTKLEIK
Cyno PAI-1 neutralization IC50 (cynomolgus PAI-1 [5]): 26.6 pM | Cyno PAI-1 neutralization Y50% (cynomolgus PAI-1 [5]): 53.5% | uPA-PAI-1 complex ELISA IC50 (human PAI-1 [6]): 114 pM | uPA-PAI-1 complex ELISA Y50% (human PAI-1 [6]): 53.5% | uPA-PAI-1 complex ELISA IC50 (endogenous human PAI-1 [7]): 3.35 pM | uPA-PAI-1 complex ELISA Y50% (endogenous human PAI-1 [7]): 37.7%

B8: C45 (antibody, mouse IgG2b, V domains shown)
VH: QVQLQQSGVELVRPGTSVKVSCKASGYAFTNYLIEWIKQRPGQGLEWIGVIHPGSGVTNYNEKFKGKAILTADKSSSTAYMQLSSLTSDDSAVYFCARDYYGSSHGLMDYWGQGTSVTVSS
VL: DIKMTQSPSSMYASLGERVTITCKASQDINSYLSWFQQKPGKSPKTLIYRANRLVDGVPSRFSGSGSGQDYSLTISSLEYEDMGIYYCLQYDEFPRTFGGGTKLEIK
plasmin generation, IC50abs [1]: 6500 pM | plasmin generation, Imax [1]: 97%

B9: APG (antibody, V domains shown)
VH: QVKLQESGPELVKPGASVKISCKASGYSFTDYNMNWVKQSKGKSLEWIGIIHPNSGTTTYNQKFKGKATLTVDQSSSTAYLQLNSLTSEDSAVYYCARSKLRFFDYWGQGTTVTVSS
VL: DIKLTQSPSSMYASLGERVTITCKASQDIYSYLSWFQQKPGKSPKTLIYRANRLIDGVPSRFSGSGSGQDYSLTISSLEYEHMGIYYCLQYDEFPFTFGSGTKLEIK
notes: mouse antibody; also called mAPG; mouse APG
human plasma clot lysis IC50 [4]: 2340 pM | human plasma clot lysis Imax @ 100 nM [4]: 123% | human plasma, uPA-PAI-1 ELISA IC50abs (endogenous human PAI-1 [11]): 1810 pM | human plasma, uPA-PAI-1 ELISA Imax (endogenous human PAI-1 [11]): 89.7% | kon [12]: 3.82e+06 M⁻¹ s⁻¹

B10: A71 (antibody, mouse IgG1, V domains shown)
VH: QVQLQQSGAELMKPGASVKISCKATGFTFSTYWIEWIKQRPGHGLDWIGEILPGSGNTNYNEKFKGKATFTADTSSNTVYMQLSSLTSEDSAVYYCARGGLYYNLDSWGQGTTLTVSS
VL: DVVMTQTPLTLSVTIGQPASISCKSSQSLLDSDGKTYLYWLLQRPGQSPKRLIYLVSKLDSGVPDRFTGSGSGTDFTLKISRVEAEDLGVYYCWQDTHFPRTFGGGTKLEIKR
plasmin generation, IC50abs [1]: 8610 pM | plasmin generation, Imax [1]: 90%

B11: A105 (antibody, mouse IgG1, V domains shown)
VH: QVQLQQSGAELMKPGASVKISCKATGFTFSIYWIEWVKQRPGLGLEWIGEILPGSGSTNYNEKFKGKATFTADTSSNTAFMQLSSLTSEDSAVYYCARGGLYYDLDYWGQGTILTVSS
VL: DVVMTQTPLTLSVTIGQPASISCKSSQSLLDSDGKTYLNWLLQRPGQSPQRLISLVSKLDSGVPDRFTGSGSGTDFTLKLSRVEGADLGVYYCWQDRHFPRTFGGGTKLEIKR
plasmin generation, IC50abs [1]: 27000 pM | plasmin generation, Imax [1]: 88%

B12: E16 (antibody, mouse IgG1, V domains shown)
VH: EVKLVESGGGLVKPGGSLKLSCAASGFTFSNYGMSWVRQTPEKGLGWVASLRTGGNTYYSDSVKGRFTISRDNDRNILYLQMSSLTSEDTAVYYCARGLRHWGYFDVWGAGTTVTVSS
VL: DIVMTQSHKFMSTSVGDRVNITCKASQDVSTAVGWYQQEPGQSPKLLIYSASNRHTGVPDRFTGSGSGTDFTFTISSVQAEDLAVYYCQQHYSSPWTFGGGTKLEIK
plasmin generation, IC50abs [1]: 4740 pM | plasmin generation, Imax [1]: 95%

B13: APGv2 (antibody, V domains shown)
VH: QVQLVQSGSELKKPGASVKVSCKASGYSFTDYNMNWVRQAPGQGLEWIGIIHPNSGTTTYNQKFKGRAVLSVDQSVSTAYLQISSLKAEDTAVYYCARSKLRFFDYWGQGTLVTVSS
VL: DIQLTQSPSSLSASVGDRVTITCKASQDIYSYLSWFQQKPGKAPKTLIYRANRLIDGVPSRFSGSGSGQDYTFTISSLQPEDIATYYCLQYDEFPFTFGQGTKLEIK
notes: humanized; also called APG variant 2
human plasma clot lysis IC50 [4]: 2080 pM | human plasma clot lysis Imax @ 100 nM [4]: 114% | Kd (cynomolgus PAI-1 [8]): < 50 pM | human plasma, uPA-PAI-1 ELISA IC50abs (endogenous human PAI-1 [11]): 962 pM | human plasma, uPA-PAI-1 ELISA Imax (endogenous human PAI-1 [11]): 94.5% | kon [12]: 6.58e+06 M⁻¹ s⁻¹

B14: APGv4 (antibody, V domains shown)
VH: QVQLVQSGAEVKKPGASVKVSCKASGYSFTDYNMNWVRQAPGQGLEWIGIIHPNSGTTTYNQKFKGRATLTVDQSTSTAYMELSSLRSEDTAVYYCARSKLRFFDYWGQGTLVTVSS
VL: DIQLTQSPSSLSASVGDRVTITCKASQDIYSYLSWFQQKPGKAPKTLIYRANRLIDGVPSRFSGSGSGQDYTFTISSLQPEDIATYYCLQYDEFPFTFGQGTKLEIK
notes: humanized; also called APG variant 4
human plasma clot lysis IC50 [4]: 2820 pM | human plasma clot lysis Imax @ 100 nM [4]: 116% | human plasma, uPA-PAI-1 ELISA IC50abs (endogenous human PAI-1 [11]): 1280 pM | human plasma, uPA-PAI-1 ELISA Imax (endogenous human PAI-1 [11]): 94.4% | kon [12]: 9.48e+06 M⁻¹ s⁻¹
